The series concerns the molecule itself. Put plainly: co-sedimentation; pelleting assay, each protein at 1 μM in polymerization buffer (10 mM Tris-HCl pH 7.5, 25 mM KCl, 2 mM MgCl2, 1 mM DTT) with or without 1 mM ATP, 25°C for 10 min, 100,000 x g for 30 min at 4°C; SDS-PAGE of pellet and supernatant.

B1: untagged recombinant MamK (natural protein, Magnetospirillum magneticum AMB-1, UniProt Q2W8Q6 1-347, looked up)
chain: MSEGEGQAKNRLFLGIDLGTSHTAVMSSRGKKFLLKSVVGYPKDVIGLKLLGRPYVVGDEAFEMRSYLDIRYPLQDGVLSEISDRDIEVARHLLTHVVKSAEPGPNDEICAVIGVPARASAANKALLLKMAQEVVHTALVVSEPFMVGYGLDKLINTIIVDIGAGTTDICALKGTVPGPEDQVTLTKAGNYVDERLQNAILERHPELQMNVNVACAVKEQFSFVGTPTEVASFEFRAAGKPVRADVTEPVKIACEALMPDIIESIETLLRSFQPEYQATVLQNIVFAGGGSRIRGLAAYVKEKLRPFGDANVTCVKDPTFDGCRGALRLAEELPPQYWRQLGDVSGS
notes: MamK, bacterial actin-like protein; 37.6 kDa as printed; The monomeric fractions were pooled; the protein forms filaments with ATP; also called purified MamK; MamK filaments; source: E. coli BL21, purified (ammonium sulfate precipitation, anion exchange, gel filtration)
Consider B1, for which the binding result is listed as “binds”.

The values are drawn from publication doi:10.1101/2025.11.10.687720, “Magnetosome organelles are organized through interactions between McaA and McaB that alter the dynamics of the bacterial actin-like protein MamK” (bioRxiv, 2025).
